# Reference: US12121554B2 (priority 2018, dated 2024)
# Assays:
# [1] = tested on: CD19-specific CAR T cells; type: cell-based; conditions: recombinant murine IFNβ in IL2
# Protocol: FIGS. 8A-8D. CD19 CAR T cells treated with IFNβ in vitro. EGFRvIII-specific CAR T cells (with the scFv 139) and CD19-specific CAR T cells (with the scFv FMC63) were cultured in IL2 in the absence or presence of recombinant murine IFNβ, and CAR expression on the surface was measured using Biotin-Protein L and recognized with streptavidin-PE (Protein L+SA PE). Representative staining is shown in FIG. 8A, and the mean of three technical replicates was quantified in FIG. 8B. FIG. 8C: Representative expression of the activation markers CD25 and CD69 were shown for CAR T cells cultured as in FIG. 8A. FIG. 8D: Inhibitory receptor expression (PD1, LAG3, and TIM3) was quantified on CD8 CAR T or UTD cells cultured as in FIG. 8A. Average expression of three technical replicates is shown.
# [2] = tested on: CD8 CAR T cells; type: cell-based, murine
molecule,measurement,setting,value
"recombinant IFNβ: recombinant murine interferon β added to CAR T cell cultures (protein, UniProt P01575 22-182, looked up) Interferon beta: INYKQLQLQERTNIRKCQELLEQLNGKINLTYRADFKIPMEMTEKMQKSYTAFAIQEMLQNVFLVFRNNFSSTGWNETIVVRLLDELHQQTVFLKTVLEEKQEERLTWEMSSTALHLKSYYWRVQRYLKLMKYNSYAWMVVRAEIFRNFLIIRRLTRNFQN",CAR expression on the surface of CD19-specific CAR T cells,[1],promoted higher expression levels of the CAR molecule
same,"activation phenotype (CD25, CD69) of CD19-specific CAR T cells",[1],supported an activated phenotype
same,inhibitory receptor expression of CD19-specific CAR T cells over untransduced cells,[1],not associated with increased levels of inhibitory receptor expression
same,CAR expression on the surface of transduced CD8 T cells,[2],dose-dependent increase was observed in CAR expression
same,"expression of the exhaustion markers Lag3, PD1, and Tim 3",[2],"dose dependent increase in expression of the exhaustion markers Lag3, PD1, and Tim 3"
same,proportion of AnnexinV positive apoptotic cells,[2],dose-dependent increase in the proportion of AnnexinV positive apoptotic cells
same,"proportion of triple positive cells (Lag3, PD1, Tim3)",[2],"dramatically increased by IFNβ between 0 and 1 ng/mL, and plateaued at higher doses"
